Experimental data reported in patent publication US20240270857A1 (CHIA TAI TIANQING PHARMACEUTICAL GROUP, published 2024).
Positions count from the first letter of the chain named.

T1: IL-36R naturally expressed on OVCAR8 cells and on normal human epidermal keratinocytes (NHK cells) (human, UniProt Q9HB29 20-575)
T1 sequence (looked up): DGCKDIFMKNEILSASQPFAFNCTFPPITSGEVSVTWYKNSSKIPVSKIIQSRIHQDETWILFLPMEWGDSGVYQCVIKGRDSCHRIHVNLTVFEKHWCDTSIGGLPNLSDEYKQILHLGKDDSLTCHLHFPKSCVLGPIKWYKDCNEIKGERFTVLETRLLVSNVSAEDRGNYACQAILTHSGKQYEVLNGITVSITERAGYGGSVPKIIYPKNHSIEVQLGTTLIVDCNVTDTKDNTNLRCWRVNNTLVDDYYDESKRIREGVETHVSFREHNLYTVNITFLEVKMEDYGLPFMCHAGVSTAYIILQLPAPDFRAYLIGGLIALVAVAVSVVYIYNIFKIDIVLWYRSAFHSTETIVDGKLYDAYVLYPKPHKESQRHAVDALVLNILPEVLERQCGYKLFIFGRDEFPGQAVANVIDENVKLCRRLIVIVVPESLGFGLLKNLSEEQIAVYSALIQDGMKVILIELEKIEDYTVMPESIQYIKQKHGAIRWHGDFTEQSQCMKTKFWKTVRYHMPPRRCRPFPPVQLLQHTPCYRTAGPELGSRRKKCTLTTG

T2: Human IL-1Rrp2/IL-1R6 protein, His Tag (ACROBiosystems, IL2-H52H6) (human, UniProt Q9HB29 20-335)
T2 construct: Bought protein; the soluble protein is likely only the extracellular part; also called hIL-36R; human IL36R antigen; not shown: His tag
T2 sequence: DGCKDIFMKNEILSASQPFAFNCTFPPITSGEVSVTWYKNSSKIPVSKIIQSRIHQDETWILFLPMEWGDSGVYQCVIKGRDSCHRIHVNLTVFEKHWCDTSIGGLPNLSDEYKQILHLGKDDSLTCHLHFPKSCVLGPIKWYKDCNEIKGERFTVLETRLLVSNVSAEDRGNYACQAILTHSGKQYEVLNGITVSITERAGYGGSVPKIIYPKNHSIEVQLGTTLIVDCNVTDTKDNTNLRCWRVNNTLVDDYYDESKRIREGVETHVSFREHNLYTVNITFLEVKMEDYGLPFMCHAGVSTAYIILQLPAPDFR

B1: hz84C4-1.1 (antibody, human IgG4 S228P, kappa, V domains shown)
VH: QVQLVQSGAEVKKPGASVKVSCKASGYFFTSYWMNWVRQAPGQGLEWMGMIHPYDSETRYAQKFQGRVTMTVDKSTSTVYMELSSLRSEDTAVYYCASSTTAFAYWGQGTLVTVSS
VL: DIQMTQSPSSLSASVGDRVTITCRASQDIGNALNWYQQKPGKAPKRLIYATSSLDPGVPSRFSGSRSGTDFTLTISSLQPEDFATYYCLQYASSPYTFGQGTKVEIKR
notes: Humanized, human IgG4 / kappa
B2: hz84C4-1.4 (antibody, human IgG4 S228P, kappa, V domains shown)
VH: B1 VH with F28Y, Y60L, Q65K
VL: B1 VL
notes: Humanized, human IgG4 / kappa
B3: hz84C4-2.2 (antibody, human IgG4 S228P, kappa, V domains shown)
VH: B1 VH with M50Y
VL: B1 VL with Y36L, F71Y
notes: Humanized, human IgG4 / kappa
B4: hz84C4-1.2 (antibody, human IgG4 S228P, kappa, V domains shown)
VH: B1 VH with M50Y
VL: B1 VL
notes: Humanized, human IgG4 / kappa
B5: hz84C4-2.1 (antibody, human IgG4 S228P, kappa, V domains shown)
VH: B1 VH
VL: B1 VL with Y36L, F71Y
notes: Humanized, human IgG4 / kappa
B6: hz84C4-1.5 (antibody, human IgG4 S228P, kappa, V domains shown)
VH: B1 VH with A24V, R38N, Y60L, Q65K
VL: B1 VL
notes: Humanized, human IgG4 / kappa
B7: hz84C4-1.3 (antibody, human IgG4 S228P, kappa, V domains shown)
VH: B1 VH with H52Y
VL: B1 VL
notes: Humanized, human IgG4 / kappa
B8: BI655130 (antibody, human IgG1, kappa, L234A L235A)
heavy: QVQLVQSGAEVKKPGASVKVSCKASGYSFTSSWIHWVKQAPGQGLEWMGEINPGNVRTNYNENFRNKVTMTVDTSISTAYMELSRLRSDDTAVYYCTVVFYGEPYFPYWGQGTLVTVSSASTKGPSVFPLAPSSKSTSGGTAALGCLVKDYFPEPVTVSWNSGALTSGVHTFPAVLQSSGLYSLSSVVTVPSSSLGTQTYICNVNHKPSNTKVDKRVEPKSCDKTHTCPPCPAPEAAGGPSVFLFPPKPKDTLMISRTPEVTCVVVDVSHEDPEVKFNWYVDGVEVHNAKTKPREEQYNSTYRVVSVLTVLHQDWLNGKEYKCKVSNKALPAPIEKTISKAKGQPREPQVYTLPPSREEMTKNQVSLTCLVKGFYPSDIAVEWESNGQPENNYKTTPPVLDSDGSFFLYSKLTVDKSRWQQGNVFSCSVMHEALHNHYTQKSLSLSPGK
light: QIVLTQSPGTLSLSPGERATMTCTASSSVSSSYFHWYQQKPGQAPRLWIYRTSRLASGVPDRFSGSGSGTDFTLTISRLEPEDAATYYCHQFHRSPLTFGAGTKLEIKRTVAAPSVFIFPPSDEQLKSGTASVVCLLNNFYPREAKVQWKVDNALQSGNSQESVTEQDSKDSTYSLSSTLTLSKADYEKHKVYACEVTHQGLSSPVTKSFNRGEC
notes: also called Spesolimab

The binders below were run against T1, IL-36R naturally expressed on OVCAR8 … (assay: cell-based or functional assay).

| Binder | IC50 (M); hIL36α; IL-8 production [M] | IC50 (M); hIL36αβγ; IL-8 production [M] | IC50 (M); hIL36β; IL-8 production [M] | IC50 (M); hIL36γ; IL-8 production [M] | Maximum inhibition rate %; hIL36α; IL-8 production [%] | Maximum inhibition rate %; hIL36αβγ; IL-8 production [%] | Maximum inhibition rate %; hIL36β; IL-8 production [%] | Maximum inhibition rate %; hIL36γ; IL-8 production [%] |
| --- | --- | --- | --- | --- | --- | --- | --- | --- |
| B1 | 2.62e-11 | 5.25e-11 | 2.27e-11 | 1.44e-11 | 103 | 93.7 | 103 | 103 |
| B2 | 3.71e-11 | 5.76e-11 | 3.48e-11 | 5.01e-12 | 94.4 | 92.5 | 93.5 | 109 |
| B3 | 8.45e-11 | 6.63e-11 | 4.64e-11 | 6.21e-11 | 95.1 | 100 | 95.8 | 15 |
| B4 | 1.02e-10 | 6.67e-11 | 9.53e-12 | 3.42e-12 | 92.5 | 82.8 | 91.2 | 98.3 |
| B5 | 5.23e-11 | 4.82e-11 | 3.18e-11 | 1.81e-11 | 99.5 | 107 | 96.8 | 97.5 |
| B6 | 2.87e-11 | 2.77e-11 | 1.55e-11 | 1.27e-11 | 101 | 97 | 101 | 109 |
| B7 | ~2.41e-09 | ~6.51e-12 | ~1.43e-09 | 2.13e-09 | 16.9 | 40.7 | 19.4 | 57.5 |
| B8 | 6.33e-11 | 7.27e-11 | 3.29e-11 | 2.63e-11 | 101 | 90.7 | 97.1 | 107 |

Each binder was assayed against T2, Human IL-1Rrp2/IL-1R6 protein, His Tag … (assay: BLI (ForteBio Octet), antibody on ProA sensor, 1:1 model).
Procedure: The affinity of anti-IL-36R antibodies to CynoIL36R-ECD mFc and human IL-1Rrp2/IL-IR6 protein, His Tag (ACROBiosystems, IL2-H52H6) was measured by a ForteBio molecular interaction instrument. […] And then the biosensor was used to bind CynoIL36R-ECD mFc or human IL-1Rrp2/IL-1R6 protein, His Tag which was diluted by a gradient (the initial concentration was 200 nM, 2-fold gradient dilution), the response signals were detected in real time using a Fortebio molecular interaction instrument (SARTORIUS, octet red 96e), and association and dissociation curves were obtained. After the completion of dissociation in each cycle, the biosensor was regenerated for the next capture; the procedure was repeated until the affinity of the different anti-IL-36R antibodies for IL-36R was determined. The resulting data were analyzed by Fortebio Data Analysis 11.0 software in a 1:1 (Langmuir) binding model to determine kₐ (kₒₙ) and kd (koff) values, and the dissociation constant KD was calculated by KD=kd/kₐ. The detection method essentially followed the manufacturer's recommendations, and more information could be found at www.fortebio.com.
Affinity, binding and blocking assays for humanized antibodies hz72C1-1.1, hz72C1-1.2, hz72C1-1.3, hz72C1-2.1, hz72C1-2.2 and hz72C1-2.3 as well as hz84C4-1.1, hz84C4-1.2, hz84C4-1.3, hz84C4-1.4, hz84C4-1.5, hz84C4-2.1, hz84C4-2.2, hz84C4-2.3, hz84C4-2.4 and hz84C4-2.5 were performed according to the methods of Example 4, Example 5. Example 6, Example 7 and Example 8.

| Binder | Kd [nM] | koff [s⁻¹] | kon [M⁻¹ s⁻¹] |
| --- | --- | --- | --- |
| B1 | 0.958 | 0.000102 | 107000 |
| B2 | 1.98 | 0.000236 | 119000 |
| B3 | 1.55 | 0.000142 | 91500 |
| B4 | 1.61 | 0.000161 | 100000 |
| B5 | 1.22 | 0.000116 | 94500 |
| B6 | 1.34 | 0.000134 | 100000 |
| B7 | 0.527 | 3.26e-05 | 61900 |
| B8 | 0.713 | 5.84e-05 | 81900 |

What follows are binders tested against T2, Human IL-1Rrp2/IL-1R6 protein, His Tag … (assay: ELISA, plate coated with human IL-1Rrp2/IL-1R6 His Tag, HRP-protein A/G, OD450).
Procedure: The binding activity of anti-IL-36R antibodies to IL-36R was analyzed by ELISA using human IL-1Rrp2/IL-1R6 protein, His Tag (ACROBiosystems, IL2-H52H6) and CynoIL36R-ECD mFc (for detection of chimeric and humanized antibodies), and hIL36R-ECD hFc and CynoIL36R-ECD hFc protein (for detection of hybridoma antibodies) as antigens. A 96-well plate (Costar, 9018) was coated with 2 μg/mL antigen at 100 μL/well and incubated overnight at 4° C. After the 96-well plate was washed with a washing buffer (PBS containing 0.05% v/v Tween 20), a blocking buffer (PBS containing 2% bovine serum albumin) was added for blocking at 37° C. for 2 h. After the 96-well plate was washed with the washing buffer, 100 μL of the gradient diluted anti-IL-36R antibody of the present disclosure or the reference antibody BI655130 (the initial concentration of the antibody was 66 nM, 4-fold gradient dilution) was added to each well, and the plate was incubated at room temperature for 1 h. After the 96-well plate was washed with the washing buffer, 100 μL of horseradish peroxidase-conjugated recombinant protein A/G (TheroScientific, 32490) was added to each well, and the plate was incubated at room temperature for 1 h. After the 96-well plate was washed with the washing buffer, 100 μL of a TMB solution (Thermo, 00-4201-56) was added to each well, and the plate was incubated at room temperature for 2 min. Finally, 100 μL of a stop solution (2 N H₂SO₄) was added to each well to stop the reaction. Absorbance was read at 450 nm using a microplate reader (PE, Envision), the resulting data was analyzed using GraphPad Prism, and EC₅₀ was calculated. Binding EC₅₀ of the chimeric anti-IL-36R antibodies to hIL-36R in an ELISA assay is shown in FIG. 1. and binding EC₅₀ of the chimeric anti-IL-36R antibodies to CynoIL-36R in an ELISA assay is shown in FIG. 2. The binding of BI655130 is shown as a control, and the binding of IgG4 is shown as a negative control.

| Binder | EC50 [nM] |
| --- | --- |
| B1 | 0.509 |
| B2 | 0.684 |
| B3 | 0.533 |
| B4 | 0.531 |
| B5 | 0.558 |
| B6 | 0.624 |
| B7 | 3.41 |
| B8 | 0.348 |
